Experimental findings from paper PMC6451123, “The G3-U70-independent tRNA recognition by human mitochondrial alanyl-tRNA synthetase” (Nucleic Acids Research, 2019) are described below.

This data set concerns the molecule itself. In words: SEC; gel filtration of the purified enzyme; apparent molecular mass from the elution volumes of three standard proteins (apoferritin 443 kDa, yeast alcohol dehydrogenase 150 kDa, bovine serum albumin 66 kDa). A general note: Size exclusion chromatography separates by hydrodynamic size, large species first.

B1: E. coli AlaRS (enzyme, UniProt P00957 1-876, looked up)
chain: MSKSTAEIRQAFLDFFHSKGHQVVASSSLVPHNDPTLLFTNAGMNQFKDVFLGLDKRNYSRATTSQRCVRAGGKHNDLENVGYTARHHTFFEMLGNFSFGDYFKHDAIQFAWELLTSEKWFALPKERLWVTVYESDDEAYEIWEKEVGIPRERIIRIGDNKGAPYASDNFWQMGDTGPCGPCTEIFYDHGDHIWGGPPGSPEEDGDRYIEIWNIVFMQFNRQADGTMEPLPKPSVDTGMGLERIAAVLQHVNSNYDIDLFRTLIQAVAKVTGATDLSNKSLRVIADHIRSCAFLIADGVMPSNENRGYVLRRIIRRAVRHGNMLGAKETFFYKLVGPLIDVMGSAGEDLKRQQAQVEQVLKTEEEQFARTLERGLALLDEELAKLSGDTLDGETAFRLYDTYGFPVDLTADVCRERNIKVDEAGFEAAMEEQRRRAREASGFGADYNAMIRVDSASEFKGYDHLELNGKVTALFVDGKAVDAINAGQEAVVVLDQTPFYAESGGQVGDKGELKGANFSFAVEDTQKYGQAIGHIGKLAAGSLKVGDAVQADVDEARRARIRLNHSATHLMHAALRQVLGTHVSQKGSLVNDKVLRFDFSHNEAMKPEEIRAVEDLVNTQIRRNLPIETNIMDLEAAKAKGAMALFGEKYDERVRVLSMGDFSTELCGGTHASRTGDIGLFRIISESGTAAGVRRIEAVTGEGAIATVHADSDRLSEVAHLLKGDSNNLADKVRSVLERTRQLEKELQQLKEQAAAQESANLSSKAIDVNGVKLLVSELSGVEPKMLRTMVDDLKNQLGSTIIVLATVVEGKVSLIAGVSKDVTDRVKAGELIGMVAQQVGGKGGGRPDMAQAGGTDAAALPAALASVKGWVSAKLQ
notes: Escherichia coli alanyl-tRNA synthetase; calculated molecular mass of 96 kDa; Construct, tags and host are not described; The calculated mass of 96 kDa would fit the whole protein; also called EcAlaRS; source: purified
In the case of B1, the binding result is “binds”.
